Data published in patent US20200123252A1 (LAMKAP BIO BETA, published 2020).

T1: shed CEA (soluble CEA) (human, UniProt P06731 35-685, limits assumed)
T1 sequence (looked up): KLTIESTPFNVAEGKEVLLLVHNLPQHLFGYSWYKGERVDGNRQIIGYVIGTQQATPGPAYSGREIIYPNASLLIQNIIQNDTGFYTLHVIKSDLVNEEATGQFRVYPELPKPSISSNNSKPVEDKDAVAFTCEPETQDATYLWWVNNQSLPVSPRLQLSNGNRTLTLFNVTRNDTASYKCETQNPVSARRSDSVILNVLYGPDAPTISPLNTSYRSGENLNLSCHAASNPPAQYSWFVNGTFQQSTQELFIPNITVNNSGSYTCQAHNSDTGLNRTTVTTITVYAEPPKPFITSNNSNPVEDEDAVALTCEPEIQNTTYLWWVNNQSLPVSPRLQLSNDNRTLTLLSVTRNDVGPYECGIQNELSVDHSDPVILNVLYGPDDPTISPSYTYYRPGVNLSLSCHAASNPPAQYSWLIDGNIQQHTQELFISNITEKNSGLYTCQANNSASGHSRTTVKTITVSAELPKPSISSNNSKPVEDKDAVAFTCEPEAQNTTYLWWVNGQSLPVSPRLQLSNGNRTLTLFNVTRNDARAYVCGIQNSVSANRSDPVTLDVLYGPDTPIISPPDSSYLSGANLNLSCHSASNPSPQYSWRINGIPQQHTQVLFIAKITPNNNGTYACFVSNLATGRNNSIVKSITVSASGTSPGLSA

T2: human CEACAM5 on MKN-45 cells (human, UniProt P06731 35-685)
T2 construct: Endogenous CEACAM5 on MKN-45 gastric adenocarcinoma cells, which also carry CD47 (and CEACAM6); also called CD66e; MKN45 CEA+ cancer cells
T2 sequence: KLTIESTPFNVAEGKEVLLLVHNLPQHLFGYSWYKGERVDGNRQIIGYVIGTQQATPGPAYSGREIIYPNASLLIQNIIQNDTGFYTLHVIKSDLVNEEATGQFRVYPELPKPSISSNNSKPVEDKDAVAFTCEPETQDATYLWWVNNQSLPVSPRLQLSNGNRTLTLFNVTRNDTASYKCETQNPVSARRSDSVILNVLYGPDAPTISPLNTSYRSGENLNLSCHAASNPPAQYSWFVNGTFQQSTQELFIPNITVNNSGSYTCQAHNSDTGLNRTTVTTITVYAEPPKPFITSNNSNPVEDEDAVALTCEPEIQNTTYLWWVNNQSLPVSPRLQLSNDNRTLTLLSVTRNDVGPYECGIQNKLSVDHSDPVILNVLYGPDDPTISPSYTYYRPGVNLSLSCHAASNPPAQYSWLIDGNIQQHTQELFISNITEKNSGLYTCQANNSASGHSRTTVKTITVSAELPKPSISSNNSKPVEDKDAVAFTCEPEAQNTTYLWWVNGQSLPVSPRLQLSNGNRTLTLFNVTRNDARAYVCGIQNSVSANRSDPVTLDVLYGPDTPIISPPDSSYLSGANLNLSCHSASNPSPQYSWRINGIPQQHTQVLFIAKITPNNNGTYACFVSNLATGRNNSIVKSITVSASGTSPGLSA

T3: human CEACAM6 (human, UniProt P40199 35-320)
T3 construct: also called CD66c; biotinylated recombinant human CEACAM6
T3 sequence (looked up): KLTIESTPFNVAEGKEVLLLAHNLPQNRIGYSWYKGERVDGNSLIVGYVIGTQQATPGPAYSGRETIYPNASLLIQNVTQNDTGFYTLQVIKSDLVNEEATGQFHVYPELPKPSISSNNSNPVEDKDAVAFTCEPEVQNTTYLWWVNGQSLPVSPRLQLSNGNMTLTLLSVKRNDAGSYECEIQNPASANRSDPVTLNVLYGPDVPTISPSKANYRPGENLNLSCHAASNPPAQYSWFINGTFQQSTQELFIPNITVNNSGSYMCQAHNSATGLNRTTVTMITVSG


Experiments:
shed CEA (soluble CEA) = biological target: T1, shed CEA (soluble CEA); test: cell-based or functional assay
[1] = biological target: T2, human CEACAM5 on MKN-45 cells; test: binding to MKN-45 cells (MFI), without shed CEA
[2] = biological target: T2, human CEACAM5 on MKN-45 cells; test: binding to MKN-45 cells (MFI), in the presence of 200 ng/mL shed CEA
[3] = biological target: T2, human CEACAM5 on MKN-45 cells; test: flow cytometry on MKN45 CEA+ cells (carry CEACAM5 and CD47); MKN45 CEA+ cancer cells
[4] = biological target: T4, human CD47 on MKN45 cells (human, UniProt Q08722 19-323); test: inhibition of SIRPα-mouseFc binding to CD47 on MKN45 cells, imaging (CX5)
T4 construct: whole, on cells; also called IAP
Text: The detection of bound SIRPα cell-based assay monitoring the interaction of soluble SIRPα with human CD47 expressed at the surface of MKN45 is used for the detection of the blocking activity. Dose-response experiments with bispecific antibodies according to the invention allow determination of an IC50 value.
MKN45 cancer cells, expressing both CD47 and CEACAM5, are stained with CFSE violet to allow the imaging system (CX5) to detect the cells. Briefly, 3,000 stained MKN45 cells per well are seeded in a 384 optical well plate (Costar) and incubated for 50 minutes with increased concentrations of bispecific antibodies of the invention (1.9 pM to 333 nM, in quadruplicates). Then, a fixe concentration of SIRPα-mouseFc premixed with anti-mouse IgG-Fc AF647 coupled antibody (Jackson Immunoresearch diluted 1:2000) is added at 50 ng/mL final. After an incubation of 3H30 plates are acquired with the imaging system (CX5, Thermofisher) and fluorescence signals emitted by the detected bound SIRPα is recorded by the software dedicated to the imaging system. Fluorescence signals are plotted according to the dose range tested and IC50 are calculated by the software (Prism, Graphpad).

[5] = biological target: T2, human CEACAM5 on MKN-45 cells; test: flow cytometry on MKN45 CEA+ cells (carry CEACAM5 and CD47)
[6] = biological target: T2, human CEACAM5 on MKN-45 cells; test: FACS binding to MKN-45 cells, which express CD47, CEACAM5 and CEACAM6; K2AC39 is cross-reactive to CEACAM6
human CEACAM6 = biological target: T3, human CEACAM6; test: ELISA on biotinylated recombinant human CEACAM6 captured on streptavidin, bivalent mAb
Experimental: Biotinylated recombinant human CEACAM5 or CEACAM6 proteins are captured at 0.5 μg/mL in a streptavidin coated 96-well microplate. The plate is washed and monoclonal anti-CEA bivalent antibodies of the present invention are added as a broad concentration-range (e.g. from […] to 1 μg/mL) and incubated during 1 hr. The plate is washed and bound antibodies are detected with an anti-human IgG(Fc)-HRP (Jackson ImmunoResearch). […] The fluorescence signal is measured on a Synergy HT plate reader (Biotek).

IC50 [4] [nM] | EC50 [5] [nM] | Binder | other results
0.86 | 12.5 | K2AC27 CEA×CD47 bispecific antibody (bispecific antibody, human IgG1, kappa, lambda, κλ body, human IgG1, common heavy chain; CEACAM5 arm light chain 2C11 (AC27)) heavy: not shown light 1: QSVLTQPPSVSGAPGQRVTISCTGSSSNIGYADKVHWYQQLPGTAPKLLIYNNSDRPSGVPDRFSGSKSGTSASLAITGLQAEDEADYYCQSYDGYNMLTAVFGGGTKLTVLGQPKAAPSVTLFPPSSEELQANKATLVCLISDFYPGAVTVAWKADSSPVKAGVETTTPSKQSNNKYAASSYLSLTPEQWKSHRSYSCQVTHEGSTVEKTVAPTECS light 2: not shown | –
0.72 | 14.5 | K2AC29 CEA×CD47 bispecific antibody (bispecific antibody, human IgG1, kappa, lambda, κλ body, human IgG1, common heavy chain; CEACAM5 arm light chain 2B5 (AC29)) heavy: not shown light 1: QSALTQPASVSGSPGQSITISCTGTSSDVEFTNGVSWYQQHPGKAPKLMIYGFSSRPSGVSNRFSGSKSGNTASLTISGLQAEDEADYYCSSYDPPWHLLARVFGGGTKLTVLGQPKAAPSVTLFPPSSEELQANKATLVCLISDFYPGAVTVAWKADSSPVKAGVETTTPSKQSNNKYAASSYLSLTPEQWKSHRSYSCQVTHEGSTVEKTVAPTECS light 2: not shown | –
0.95 | 52.5 | K2AC28 CEA×CD47 bispecific antibody (bispecific antibody, human IgG1, kappa, lambda, κλ body, human IgG1, common heavy chain; CEACAM5 arm light chain C11 (AC28)) heavy: not shown light 1: NFMLTQPHSVSESPGKTVTISCTRSSGSINDITVHWYQQRPGSSPTTVIYGYNARPSGVPDRFSGSIDSSSNSASLTISGLKTEDEADYYCQSWDGHGSAYVFGGGTKLTVLGQPKAAPSVTLFPPSSEELQANKATLVCLISDFYPGAVTVAWKADSSPVKAGVETTTPSKQSNNKYAASSYLSLTPEQWKSHRSYSCQVTHEGSTVEKTVAPTECS light 2: not shown | –

Second part, the binder before the results:

Binder | IC50 [4] [nM] | EC50 [5] [nM] | other results
K2AC5 CEA×CD47 bispecific antibody (bispecific antibody, human IgG1, kappa, lambda, κλ body, human IgG1, common heavy chain; CEACAM5 arm light chain 1D9 (AC5) with lambda constant domain, CD47 arm kappa light chain KA3 (K2); also called CD47×CEA bispecific antibody K2AC5) heavy: not shown light 1: QSVLTQPPSVSAAPGQKVTISCSGSSSNIGYGLVSWYQQLPGTAPKLLIYAGNLRPSGIPDRFSGSKSGTSATLGITGLQTGDEADYYCGTWDFNYGVVFGGGTKLTVLGQPKAAPSVTLFPPSSEELQANKATLVCLISDFYPGAVTVAWKADSSPVKAGVETTTPSKQSNNKYAASSYLSLTPEQWKSHRSYSCQVTHEGSTVEKTVAPTECS light 2: not shown | 0.4 | – | shift of EC50 of the phagocytosis index curve of MKN-45 cells by 200 ng/mL shed CEA (shed CEA (soluble CEA)): < 4 fold; EC50 (read off the curve) [1]: ~0.3 µg/mL; EC50 (read off the curve) [2]: ~0.3 µg/mL; EC50 [3]: 11.3 nM
K2AC26 CEA×CD47 bispecific antibody (bispecific antibody, human IgG1, kappa, lambda, κλ body, human IgG1, common heavy chain; CEACAM5 arm light chain 2F7 (AC26)) heavy: not shown light 1: QSALTQPASVSGSPGQSITISCTGTSSDVKYANAVSWYQQHPGKAPKLMIYSNSIRPSGVSNRFSGSKSGNTASLTISGLQAEDEADYYCSSYDPRGNLLIRVFGGGTKLTVLGQPKAAPSVTLFPPSSEELQANKATLVCLISDFYPGAVTVAWKADSSPVKAGVETTTPSKQSNNKYAASSYLSLTPEQWKSHRSYSCQVTHEGSTVEKTVAPTECS light 2: not shown | 0.32 | 12.7 | –
K2AC18 CEA×CD47 bispecific antibody (bispecific antibody, human IgG1, kappa, lambda, κλ body, human IgG1, common heavy chain; CEACAM5 arm light chain 1A2 (AC18)) heavy: not shown light 1: SYVLTQPPSVSVAPGKTARITCGGNGIGDASVHWYQQKPGQAPVLVIYSTTTRPSGIPERFSGSNSGNTATLTISRVEAGDEADYYCQVWDGFGPRHRAVFGGGTKLTVLGQPKAAPSVTLFPPSSEELQANKATLVCLISDFYPGAVTVAWKADSSPVKAGVETTTPSKQSNNKYAASSYLSLTPEQWKSHRSYSCQVTHEGSTVEKTVAPTECS light 2: not shown | 7 | 132 | –
K2AC10 CEA×CD47 bispecific antibody (bispecific antibody, human IgG1, kappa, lambda, κλ body, human IgG1, common heavy chain; CEACAM5 arm light chain 1D5 (AC10)) heavy: not shown light 1: QSVLTQPPSVSGAPGQRVTISCTGSSSNIYANSNVHWYQQLPGTAPKLLIYSGSNRPSGVPDRFSGSKSGTSASLAITGLQAEDEADYYCQSYDPAHNLLTAVFGGGTKLTVLGQPKAAPSVTLFPPSSEELQANKATLVCLISDFYPGAVTVAWKADSSPVKAGVETTTPSKQSNNKYAASSYLSLTPEQWKSHRSYSCQVTHEGSTVEKTVAPTECS light 2: not shown | 0.22 | 1.15 | –
K2AC13 CEA×CD47 bispecific antibody (bispecific antibody, human IgG1, kappa, lambda, κλ body, human IgG1, common heavy chain; CEACAM5 arm light chain 2B8 (AC13)) heavy: not shown light 1: QSALTQPASVSGSPGQSITISCTGTSSNVRYAAGVSWYQQHPGKAPKLMIYEVSNRPSGVSNRFSGSKSGNTASLTISGLQAEDEADYYCSSWDFEHGPAAKVFGGGTKLTVLGQPKAAPSVTLFPPSSEELQANKATLVCLISDFYPGAVTVAWKADSSPVKAGVETTTPSKQSNNKYAASSYLSLTPEQWKSHRSYSCQVTHEGSTVEKTVAPTECS light 2: not shown | 4 | 190 | –
K2AC39 CD47×CEA bispecific antibody (bispecific antibody, human IgG1, kappa, lambda, κλ body with common heavy chain; CEACAM5/CEACAM6 arm light chain 1B2 (AC39)) heavy: not shown light 1: QSVLTQPPSVSAAPGQKVTISCSGSSSEITASGVSWYQQLPGTAPKLLIYDNNKRPSGIPDRFSGSKSGTSATLGITGLQTGDEADYYCGTWDFPPSRFVFGGGTKLTVLGQPKAAPSVTLFPPSSEELQANKATLVCLISDFYPGAVTVAWKADSSPVKAGVETTTPSKQSNNKYAASSYLSLTPEQWKSHRSYSCQVTHEGSTVEKTVAPTECS light 2: not shown | – | – | EC50 (read off the curve) [6]: ~3 µg/mL
AC22 anti-CEA bivalent monoclonal antibody (antibody, human IgG1, lambda, V domains shown, also called 1G6; anti-CEA bivalent mAb of K2AC22) VH: not shown VL: QSVLTQPPSVSAAPGQKVTISCSGSSSNIANGIVSWYQQLPGTAPKLLIYFDNLRPSGIPDRFSGSKSGTSATLGITGLQTGDEADYYCGTWDFSYGIVFGGGTKLTVLG | – | – | binding result (human CEACAM6): no binding
K2AC25 CEA×CD47 bispecific antibody (bispecific antibody, human IgG1, kappa, lambda, κλ body, human IgG1, common heavy chain; CEACAM5 arm light chain 2F4 (AC25)) heavy: not shown light 1: QSVLTQPPSVSAAPGQKVTISCSGSSSNIGITPVSWYQQLPGTAPKLLIYSNNFRPSGIPDRFSGSKSGTSATLGITGLQTGDEADYYCGTWDRTGHEIRPVFGGGTKLTVLGQPKAAPSVTLFPPSSEELQANKATLVCLISDFYPGAVTVAWKADSSPVKAGVETTTPSKQSNNKYAASSYLSLTPEQWKSHRSYSCQVTHEGSTVEKTVAPTECS light 2: not shown | 0.22 | 13 | –
